Assay results from the supplement of paper PMC10065799, “High-throughput profiling of sequence recognition by tyrosine kinases and SH2 domains using bacterial peptide display” (eLife, 2023).

Experiments:
[1] = molecular target: c-Src SH2; experiment: SH2 binding enrichment of the phosphorylated peptide, bacterial display (enrichment ratio); higher = better substrate or ligand; peptides without Tyr show the background
[2] = molecular target: SHP2-C SH2; experiment: as above
[3] = molecular target: Grb2 SH2 (UniProt P62993); experiment: as above
[4] = molecular target: Hck (UniProt P08631); experiment: phosphorylation enrichment, bacterial display (enrichment ratio); higher = better substrate or ligand; peptides without Tyr show the background
Hck, sequence (P08631 whole entry, looked up): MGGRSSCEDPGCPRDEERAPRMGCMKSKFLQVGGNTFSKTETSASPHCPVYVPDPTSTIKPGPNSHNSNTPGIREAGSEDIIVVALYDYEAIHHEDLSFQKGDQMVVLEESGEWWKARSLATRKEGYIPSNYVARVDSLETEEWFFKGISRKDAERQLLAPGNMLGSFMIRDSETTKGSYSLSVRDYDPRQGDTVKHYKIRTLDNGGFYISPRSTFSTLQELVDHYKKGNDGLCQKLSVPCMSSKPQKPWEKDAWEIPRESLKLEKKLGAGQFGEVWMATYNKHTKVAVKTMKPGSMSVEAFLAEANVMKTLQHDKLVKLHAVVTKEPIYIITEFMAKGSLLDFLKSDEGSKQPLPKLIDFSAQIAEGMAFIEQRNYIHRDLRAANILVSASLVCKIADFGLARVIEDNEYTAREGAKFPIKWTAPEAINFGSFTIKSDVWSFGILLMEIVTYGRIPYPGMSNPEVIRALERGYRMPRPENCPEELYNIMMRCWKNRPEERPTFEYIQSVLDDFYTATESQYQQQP

[5] = molecular target: MERTK (UniProt Q12866); experiment: as above
[6] = molecular target: Fyn (UniProt P06241); experiment: as above
Fyn, sequence (P06241 whole entry, looked up): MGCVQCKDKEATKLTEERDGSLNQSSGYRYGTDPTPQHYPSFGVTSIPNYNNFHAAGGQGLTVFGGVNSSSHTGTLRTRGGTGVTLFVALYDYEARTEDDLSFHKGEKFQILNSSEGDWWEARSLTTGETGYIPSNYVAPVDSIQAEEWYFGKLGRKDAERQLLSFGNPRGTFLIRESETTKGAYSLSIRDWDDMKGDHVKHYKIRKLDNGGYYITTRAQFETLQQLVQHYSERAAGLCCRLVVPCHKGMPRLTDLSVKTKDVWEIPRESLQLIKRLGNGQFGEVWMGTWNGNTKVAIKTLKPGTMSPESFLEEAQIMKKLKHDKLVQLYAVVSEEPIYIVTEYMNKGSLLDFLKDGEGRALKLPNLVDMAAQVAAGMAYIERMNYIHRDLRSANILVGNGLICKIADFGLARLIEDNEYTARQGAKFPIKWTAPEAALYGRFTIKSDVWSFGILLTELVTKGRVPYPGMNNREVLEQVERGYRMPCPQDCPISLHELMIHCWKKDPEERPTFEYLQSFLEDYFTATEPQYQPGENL

[7] = molecular target: FGFR3 (UniProt P22607); experiment: as above
FGFR3, sequence (P22607 whole entry, looked up): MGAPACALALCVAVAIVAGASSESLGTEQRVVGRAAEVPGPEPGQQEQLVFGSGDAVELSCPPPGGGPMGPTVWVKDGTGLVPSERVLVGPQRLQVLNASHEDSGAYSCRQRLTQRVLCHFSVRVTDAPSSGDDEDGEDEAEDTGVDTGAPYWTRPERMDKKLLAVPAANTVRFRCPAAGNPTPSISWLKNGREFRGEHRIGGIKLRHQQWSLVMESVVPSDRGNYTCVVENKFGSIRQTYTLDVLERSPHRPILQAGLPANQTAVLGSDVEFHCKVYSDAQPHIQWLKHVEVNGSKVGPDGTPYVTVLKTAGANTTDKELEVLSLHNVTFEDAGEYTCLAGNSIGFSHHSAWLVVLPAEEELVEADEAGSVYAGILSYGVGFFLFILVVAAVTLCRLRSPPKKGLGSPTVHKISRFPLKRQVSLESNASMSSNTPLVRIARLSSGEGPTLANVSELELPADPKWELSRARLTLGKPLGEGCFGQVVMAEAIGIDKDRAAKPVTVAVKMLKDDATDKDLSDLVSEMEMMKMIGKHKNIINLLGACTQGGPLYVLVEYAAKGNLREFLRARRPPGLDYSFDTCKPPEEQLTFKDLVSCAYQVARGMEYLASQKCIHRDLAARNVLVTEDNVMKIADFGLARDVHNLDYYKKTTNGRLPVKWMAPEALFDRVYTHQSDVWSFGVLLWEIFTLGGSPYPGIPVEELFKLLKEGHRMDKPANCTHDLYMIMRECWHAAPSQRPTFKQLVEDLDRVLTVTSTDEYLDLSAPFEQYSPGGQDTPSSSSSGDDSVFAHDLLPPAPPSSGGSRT

[8] = test system: AncSZ; experiment: as above
[9] = molecular target: EPHB1 (UniProt P54762); experiment: as above
EPHB1, sequence (P54762 whole entry, looked up): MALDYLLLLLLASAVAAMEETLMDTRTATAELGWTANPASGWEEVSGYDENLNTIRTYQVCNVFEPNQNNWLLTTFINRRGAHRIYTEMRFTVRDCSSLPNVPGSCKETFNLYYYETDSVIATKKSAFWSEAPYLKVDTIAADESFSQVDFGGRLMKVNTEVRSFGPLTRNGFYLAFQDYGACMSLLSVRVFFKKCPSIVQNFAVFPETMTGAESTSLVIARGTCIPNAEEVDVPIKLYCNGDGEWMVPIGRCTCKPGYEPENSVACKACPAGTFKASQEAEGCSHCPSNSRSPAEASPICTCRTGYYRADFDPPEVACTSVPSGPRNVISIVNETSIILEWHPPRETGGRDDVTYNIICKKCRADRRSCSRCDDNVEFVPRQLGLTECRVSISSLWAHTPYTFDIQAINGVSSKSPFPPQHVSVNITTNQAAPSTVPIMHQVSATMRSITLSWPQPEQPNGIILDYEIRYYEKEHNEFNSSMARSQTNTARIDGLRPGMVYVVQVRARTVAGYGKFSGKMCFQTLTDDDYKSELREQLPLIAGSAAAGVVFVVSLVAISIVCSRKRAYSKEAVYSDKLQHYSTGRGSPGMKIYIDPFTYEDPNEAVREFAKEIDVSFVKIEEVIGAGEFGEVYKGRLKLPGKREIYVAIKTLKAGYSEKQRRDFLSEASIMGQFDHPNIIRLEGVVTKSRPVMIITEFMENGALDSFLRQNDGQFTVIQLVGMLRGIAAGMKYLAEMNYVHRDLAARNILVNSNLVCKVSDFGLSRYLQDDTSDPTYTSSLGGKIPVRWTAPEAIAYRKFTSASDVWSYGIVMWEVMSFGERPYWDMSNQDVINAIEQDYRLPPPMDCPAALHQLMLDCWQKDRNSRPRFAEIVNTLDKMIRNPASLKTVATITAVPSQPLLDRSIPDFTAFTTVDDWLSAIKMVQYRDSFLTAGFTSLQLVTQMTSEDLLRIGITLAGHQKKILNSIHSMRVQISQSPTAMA

[10] = molecular target: FGFR1 (UniProt P11362); experiment: as above
FGFR1, sequence (P11362 whole entry, looked up): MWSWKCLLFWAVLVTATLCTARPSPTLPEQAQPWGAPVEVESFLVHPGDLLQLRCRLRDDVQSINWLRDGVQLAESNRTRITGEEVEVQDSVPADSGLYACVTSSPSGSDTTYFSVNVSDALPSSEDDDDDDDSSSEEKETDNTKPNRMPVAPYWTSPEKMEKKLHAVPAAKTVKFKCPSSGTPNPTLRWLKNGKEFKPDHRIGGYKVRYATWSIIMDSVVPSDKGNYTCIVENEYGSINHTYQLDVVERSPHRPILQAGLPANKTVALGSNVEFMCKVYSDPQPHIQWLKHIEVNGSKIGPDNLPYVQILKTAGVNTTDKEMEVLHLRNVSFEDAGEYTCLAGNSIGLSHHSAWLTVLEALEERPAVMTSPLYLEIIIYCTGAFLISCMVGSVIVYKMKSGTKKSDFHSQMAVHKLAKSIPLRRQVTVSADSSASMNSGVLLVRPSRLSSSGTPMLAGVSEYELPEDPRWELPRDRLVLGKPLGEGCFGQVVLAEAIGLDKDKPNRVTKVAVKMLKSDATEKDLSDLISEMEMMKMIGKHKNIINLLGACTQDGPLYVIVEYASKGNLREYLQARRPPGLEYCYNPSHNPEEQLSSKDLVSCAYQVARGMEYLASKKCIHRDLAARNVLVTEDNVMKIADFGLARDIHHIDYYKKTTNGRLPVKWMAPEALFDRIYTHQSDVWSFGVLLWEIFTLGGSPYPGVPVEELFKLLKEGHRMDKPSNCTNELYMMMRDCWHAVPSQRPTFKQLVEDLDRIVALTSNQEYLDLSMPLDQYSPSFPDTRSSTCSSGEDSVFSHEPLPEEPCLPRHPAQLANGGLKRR

[11] = test system: Fer (mouse); experiment: as above
[12] = molecular target: Jak2 (UniProt O60674); experiment: as above
[13] = test system: c-Src; experiment: as above
[14] = molecular target: EPHB2 (UniProt P29323); experiment: as above
[15] = molecular target: Fes (UniProt P07332); experiment: as above
Fes, sequence (P07332 whole entry, looked up): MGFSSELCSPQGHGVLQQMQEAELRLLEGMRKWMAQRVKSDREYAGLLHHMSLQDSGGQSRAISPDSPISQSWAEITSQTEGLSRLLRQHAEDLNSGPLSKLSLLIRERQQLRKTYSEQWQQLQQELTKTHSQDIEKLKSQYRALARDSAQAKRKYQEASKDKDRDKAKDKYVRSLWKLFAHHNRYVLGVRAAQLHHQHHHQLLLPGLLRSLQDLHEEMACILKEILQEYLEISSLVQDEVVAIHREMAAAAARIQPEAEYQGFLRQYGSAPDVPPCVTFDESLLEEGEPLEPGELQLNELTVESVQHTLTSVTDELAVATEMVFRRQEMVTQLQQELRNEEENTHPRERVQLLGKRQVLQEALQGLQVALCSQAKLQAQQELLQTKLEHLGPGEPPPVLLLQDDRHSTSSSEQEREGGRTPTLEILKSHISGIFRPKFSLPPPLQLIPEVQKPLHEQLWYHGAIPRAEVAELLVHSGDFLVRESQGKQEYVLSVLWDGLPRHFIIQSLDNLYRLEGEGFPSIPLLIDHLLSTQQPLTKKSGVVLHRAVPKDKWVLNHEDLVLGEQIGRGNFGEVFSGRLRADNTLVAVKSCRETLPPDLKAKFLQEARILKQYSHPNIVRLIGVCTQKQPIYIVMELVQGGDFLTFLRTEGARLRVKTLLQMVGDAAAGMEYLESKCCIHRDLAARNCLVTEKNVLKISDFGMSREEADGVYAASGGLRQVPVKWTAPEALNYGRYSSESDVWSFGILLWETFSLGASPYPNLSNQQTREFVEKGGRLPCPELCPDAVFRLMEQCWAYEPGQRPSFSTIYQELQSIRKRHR

[16] = test system: c-Abl (mouse); experiment: as above
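Throughout, for SH2 binding enrichment of the phosphorylated peptide, bacterial display: peptide library displayed on the E. coli surface as eCPX fusions, selected cells deep-sequenced, score is each peptide's frequency after selection divided by its frequency in the input.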
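Throughout, for phosphorylation enrichment, bacterial display: 11-residue human phosphosite peptides and single-mutation variants displayed on the E. coli surface, counted by deep sequencing, each peptide's frequency after selection divided by its frequency in the unselected input library; frequency after pTyr selection over input frequency; kinase dosed for 20-30% of maximal phosphorylation in three min.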

Row | SH2 binding enrichment [1] | SH2 binding enrichment [2] | SH2 binding enrichment [3] | Sequence | phosphorylation enrichment [4] | phosphorylation enrichment [5] | phosphorylation enrichment [6] | phosphorylation enrichment [7] | phosphorylation enrichment [8] | phosphorylation enrichment [9] | phosphorylation enrichment [10] | phosphorylation enrichment [11] | phosphorylation enrichment [12] | phosphorylation enrichment [13] | phosphorylation enrichment [14] | phosphorylation enrichment [15] | phosphorylation enrichment [16]
1 | 0.211 | 0.366 | 0.654 | DWLRRYLENGK [HLA-A_Y195_E190D] | 0.705 | 0.864 | 0.642 | 0.708 | 1.1 | 0.723 | 0.728 | 1.02 | 0.986 | 0.617 | 0.946 | 1.04 | 0.584
2 | 21.8 | 0.925 | 1.12 | EADRKYEEVAC [TPM3_Y163_R168C] | 0.681 | 0.545 | 0.574 | 0.777 | 1.17 | 0.622 | 0.598 | 0.61 | 1.04 | 0.53 | 0.609 | 1.41 | 0.862
3 | 0.775 | 0.791 | 0.765 | EAEPYYRSLRD [NPHS1_Y1139] | 0.521 | 0.467 | 0.479 | 0.585 | 0.929 | 0.487 | 0.505 | 0.428 | 0.785 | 0.601 | 0.594 | 0.911 | 0.709
4 | 0.442 | 0.556 | 0.791 | ECKASCPGKIT [PRSS3_Y232_Y232C] | 0.351 | 0.468 | 0.401 | 0.44 | 0.461 | 0.336 | 0.404 | 0.453 | 0.402 | 0.359 | 0.335 | 0.536 | 0.577
5 | 0.542 | 0.716 | 0.831 | EEEPVYEAEPE [HCLS1_Y360] | 0.73 | 0.72 | 0.765 | 0.84 | 1.49 | 0.664 | 0.646 | 0.655 | 1.38 | 0.851 | 0.712 | 1.42 | 1.14
6 | 0.432 | 0.669 | 0.698 | EEKKKYYDTKI [CASP5_Y103] | 0.4 | 0.366 | 0.479 | 0.515 | 0.818 | 0.442 | 0.468 | 0.465 | 0.875 | 0.34 | 0.421 | 0.853 | 0.618
7 | 0.516 | 1.05 | 0.92 | EFDRLYEEFTR [PIK3R1_Y467_YF] | 6.11 | 3.04 | 7.47 | 0.807 | 1.59 | 3.46 | 0.65 | 6.18 | 1.01 | 5.36 | 2.77 | 1.15 | 0.841
8 | 0.786 | 0.732 | 1.18 | EFENSCIFDIN [GAB1_Y83_Y83C] | 0.406 | 0.895 | 0.483 | 0.632 | 0.958 | 0.403 | 0.45 | 0.42 | 0.824 | 0.397 | 0.431 | 0.963 | 0.673
9 | 0.633 | 0.784 | 0.831 | EFISEHCGEII [EZH2_Y641_Y641H] | 0.602 | 0.658 | 0.639 | 0.722 | 1.35 | 0.733 | 0.544 | 0.652 | 1.17 | 0.56 | 0.644 | 1.31 | 0.806
10 | 0.381 | 0.659 | 1.32 | EGLKVYINGTL [ADGRD1_Y183_V184I] | 0.541 | 0.337 | 0.401 | 0.853 | 1.18 | 0.663 | 0.554 | 0.555 | 1.38 | 0.4 | 0.614 | 1.49 | 0.8
11 | 2.84 | 0.638 | 0.853 | EILTQYEAMAS [GFAP_Y242_R239L] | 0.526 | 0.471 | 0.529 | 0.608 | 1.02 | 0.547 | 0.485 | 0.514 | 0.846 | 0.503 | 0.452 | 0.976 | 0.713
12 | 0.609 | 0.755 | 0.964 | EKLIQYCQSKS [AKR1B1_Y199_G204S] | 0.46 | 0.395 | 0.475 | 0.642 | 0.679 | 0.584 | 0.459 | 0.476 | 0.562 | 0.448 | 0.588 | 0.807 | 0.638

More lines, now with the values behind:

Row | Sequence | SH2 binding enrichment [1] | SH2 binding enrichment [2] | SH2 binding enrichment [3] | phosphorylation enrichment [4] | phosphorylation enrichment [5] | phosphorylation enrichment [6] | phosphorylation enrichment [7] | phosphorylation enrichment [8] | phosphorylation enrichment [9] | phosphorylation enrichment [10] | phosphorylation enrichment [11] | phosphorylation enrichment [12] | phosphorylation enrichment [13] | phosphorylation enrichment [14] | phosphorylation enrichment [15] | phosphorylation enrichment [16]
13 | DVSKEYGHLLP [HRC_Y99] | 0.425 | 0.581 | 0.76 | 0.801 | 0.59 | 0.624 | 0.833 | 0.852 | 0.743 | 0.551 | 0.656 | 0.687 | 0.836 | 0.608 | 1.09 | 0.747
14 | DYGSGYPNDPK [RNASEH2A_Y210] | 0.319 | 0.589 | 0.699 | 0.574 | 0.569 | 0.474 | 0.643 | 0.86 | 0.482 | 0.548 | 0.538 | 0.93 | 0.575 | 0.625 | 1.01 | 0.778
15 | DYSLKYATDIP [APC_Y1183] | 0.443 | 0.536 | 0.704 | 0.6 | 0.5 | 0.582 | 0.913 | 1.35 | 0.78 | 0.6 | 0.573 | 1.25 | 0.571 | 0.565 | 1.29 | 0.736
16 | EADRKYEEVAR [TPM3_Y163] | 18 | 0.794 | 1.08 | 0.663 | 0.598 | 0.58 | 0.895 | 1.29 | 0.764 | 0.637 | 0.712 | 1.19 | 0.625 | 0.742 | 1.46 | 1.08
17 | ECKLRYSRKEG [PTPN11_Y263_L262R] | 0.453 | 0.679 | 0.746 | 0.503 | 0.523 | 0.52 | 0.53 | 0.527 | 0.457 | 0.484 | 0.376 | 0.378 | 0.423 | 0.533 | 0.606 | 0.452
18 | EDKFMYFEFPQ [PTEN_Y240] | 0.543 | 0.681 | 0.745 | 1.11 | 1.68 | 1.32 | 7.33 | 1.7 | 0.826 | 9.1 | 0.421 | 2.05 | 2.53 | 0.67 | 1.27 | 0.952
19 | EEQKKYFNAVK [SCN5A_Y1494_M1498V_YF] | 0.574 | 0.604 | 0.868 | 0.483 | 0.482 | 0.506 | 0.567 | 0.832 | 0.482 | 0.358 | 0.414 | 0.727 | 0.383 | 0.566 | 1.05 | 0.742
20 | EFGRRYGFSCQ [CCDC93_Y209_R213C_YF] | 0.495 | 0.635 | 0.856 | 0.418 | 0.491 | 0.547 | 0.62 | 0.914 | 0.539 | 0.629 | 0.534 | 0.911 | 0.468 | 0.504 | 0.989 | 0.733
21 | EGDGVYTLNDE [HP_Y125_N129D] | 0.532 | 0.445 | 0.872 | 1.81 | 0.482 | 4.51 | 0.838 | 1.18 | 0.643 | 0.453 | 0.555 | 1.21 | 3.79 | 0.727 | 1.23 | 0.8
22 | EGNERYEGYCV [GRIA3_Y451] | 2.3 | 0.693 | 0.881 | 0.574 | 0.418 | 0.544 | 0.742 | 0.982 | 0.542 | 0.575 | 0.579 | 0.944 | 0.579 | 0.562 | 1.14 | 0.761
23 | EIKLAYRRRPP [GRIN2B_Y1109_E1106K] | 0.362 | 0.525 | 0.708 | 0.789 | 0.652 | 0.526 | 0.584 | 0.735 | 0.568 | 0.537 | 0.98 | 0.861 | 0.885 | 0.617 | 0.532 | 0.756
24 | EILLSDLRTGY [TGM1_Y365_Y365D] | 0.447 | 0.629 | 0.74 | 0.553 | 0.422 | 0.416 | 0.616 | 0.673 | 0.367 | 0.511 | 0.362 | 0.744 | 0.401 | 0.455 | 0.845 | 0.421
25 | EIPTQYEAMAS [GFAP_Y242_R239P] | 2.5 | 0.629 | 0.674 | 0.596 | 0.445 | 0.487 | 0.694 | 0.982 | 0.853 | 0.536 | 0.662 | 0.802 | 0.405 | 0.577 | 1.04 | 0.615
26 | EIRTQYEVMAS [GFAP_Y242_A244V] | 6.97 | 0.89 | 0.767 | 0.49 | 0.378 | 0.484 | 0.635 | 0.74 | 0.445 | 0.493 | 0.49 | 1.07 | 0.437 | 0.476 | 0.839 | 0.615
27 | EKDSNYCLCRT [ASIC2_Y357] | 0.778 | 0.789 | 0.976 | 0.513 | 0.601 | 0.569 | 0.605 | 0.772 | 0.551 | 0.556 | 0.442 | 0.763 | 0.506 | 0.634 | 0.883 | 0.573
28 | EKQVAYCPSGK [ROS1_Y2323] | 0.464 | 0.844 | 0.879 | 0.442 | 0.412 | 0.383 | 0.505 | 0.634 | 0.413 | 0.49 | 0.32 | 0.638 | 0.358 | 0.445 | 0.795 | 0.567
29 | ELSDGYWVVSN [TPP1_Y459_A454E] | 7.16 | 0.616 | 0.636 | 0.647 | 0.396 | 0.507 | 1.21 | 1.39 | 0.559 | 1.3 | 0.528 | 1.63 | 0.588 | 0.664 | 1.34 | 0.778
